Experimental data from patent US20150218240A1 (SAMSUNG ELECTRONICS, published 2015).

Target: T1, Cdk6 (Abcam's ab84717, recombinant full length Human Cdk6 (amino acids 1-326) with N-terminal His tag) (human, UniProt Q00534 1-326)
T1 construct: range 1-326; Bought reagent (Abcam ab84717), coated on the ELISA plate at 1 ug/ml; also called CDk6 protein; not shown: N-terminal His tag of the bought protein
Assay: ELISA: Cdk6 coated on plate, p16 at 0-10 uM, detected with anti-p16 antibody and HRP secondary, A450

T1 sequence (Q00534 whole entry, the tested form may be a part): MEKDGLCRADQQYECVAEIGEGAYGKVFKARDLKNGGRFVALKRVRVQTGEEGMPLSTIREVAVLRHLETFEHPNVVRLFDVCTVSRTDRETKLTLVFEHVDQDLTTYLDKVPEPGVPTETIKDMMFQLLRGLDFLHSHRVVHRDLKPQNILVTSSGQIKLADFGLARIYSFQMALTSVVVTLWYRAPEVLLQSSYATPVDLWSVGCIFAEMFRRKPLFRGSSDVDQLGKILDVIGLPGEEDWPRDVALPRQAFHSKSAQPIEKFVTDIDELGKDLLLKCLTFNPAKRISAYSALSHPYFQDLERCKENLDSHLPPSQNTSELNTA

B1: human p16 protein variant (SEQ ID NO: 2; W15K, L37D, L65K, C72S, L78S, V106A, L113T) (other)
chain: MEPAAGSSMEPSADKLATAAARGRVEEVRALLEAGADPNAPNSYGRRPIQVMMMGSARVAELLLKHGAEPNSADPATSTRPVHDAAREGFLDTLVVLHRAGARLDARDAWGRTPVDLAEELGHRDVARYLRAAAGGTRGSNHARIDAAEGPSDIPD
notes: also called p16INK4a variant; mt p16
binding result: binds
